What all share (experiment): native gel or EMSA; blue native gel electrophoresis (NativePAGE Novex 3-12% Bis-Tris), 225 ng purified recombinant protein in BRB80-DTT buffer plus 5% glycerol, silver-stained; oligomer size read from band mobility
Data set [1] deals with recombinant hexahistidine-tagged full-length KIN13-5 (a.a. 1-719) (T. brucei).
The target in data set [2] is GST-fused TbSpef1 (full-length TbSpef1 with N-terminal GST) (T. brucei).
Data set [3] deals with motor domain of KIN13-5 (a.a. 170-536), hexahistidine-tagged (T. brucei).
A further data set deals with GST.
Data set [4] has as its target recombinant hexahistidine-tagged KIN13-1 (T. brucei).
Data set [5] has as its target KIN13-5 CC-deletion mutant (a.a. 1-642), hexahistidine-tagged (T. brucei).
The target of data set [6] is KIN13-5 SAM domain-deletion mutant (a.a. 71-719), hexahistidine-tagged (T. brucei).
Data set [7] concerns the molecule itself.

The source of these data is article PMC10863849, “A kinesin-13 family kinesin in Trypanosoma brucei regulates cytokinesis and cytoskeleton morphogenesis by promoting microtubule bundling” (PLOS Pathogens, 2024).

One may read the stoichiometry N as the number of molecules, sites or subunits per partner or assembly. Regarding “recombinant hexahistidine-tagged full-length KIN13-5 (a.a. 1-719) (natural protein)”, the stoichiometry N in data set [1] is 8.
With “GST-fused TbSpef1 (full-length TbSpef1 with N-terminal GST) (natural protein)”, in data set [2], the stoichiometry N came to 4.
For “motor domain of KIN13-5 (a.a. 170-536), hexahistidine-tagged (domain or fragment)”, in data set [3], the stoichiometry N is 4.
Turning to GST (natural protein), the stoichiometry N with GST is 2.
Turning to “recombinant hexahistidine-tagged KIN13-1 (natural protein)”, in data set [4], the stoichiometry N came out at 2.
“KIN13-5 CC-deletion mutant (a.a. 1-642), hexahistidine-tagged (domain or fragment)”: the stoichiometry N in data set [5] turned out to be 2.
With “KIN13-5 SAM domain-deletion mutant (a.a. 71-719), hexahistidine-tagged (domain or fragment)”, the stoichiometry N in data set [6] came out at 4.

B1: recombinant hexahistidine-tagged KIN-G (natural protein)
chain: MAKPLSGKAAPKNISVFLRVRPPVPRELKGGTFNNLVCDPSDPQRVTITRGGSARKGTKSFLFNRVFDPECTQQTIYNEVARGAVDAAFDGQHGVLFVYGQTGSGKTFTISNNDPEKPGVLQQSLRDIWDRFQADTEYDYSCTVSYVQLYNEMLTDLLDPQGGRVRIQLGPEGRGDVVLVTEASGASIERKVESYEDCLKYFYEGMDRKEMTSTKMNNTSSRSHTVFNFNLTRSAKVKTVDLSSAKANNEPVIALQGRLVVCDLAGSERASRTNAEGKTLDEATHINGSLLVLGKVVAALTESGSQHAPFRESKLTRILQYSLLGNGNTSIVVNCSPCDDSTEETLGAIMFGQRAIQIKQDAKRHEILDYKALYYQLLADLDSKNDRTLETALSEERTAYEDRIRVLEERIKILTSENDMLRRESSQLGGTGPVSGTSTASGAAAAAVAMGGDDANDWRSLTMKMRRAIEKLDADLKRTDKERVELAQFLALEKNKVNVLAQKLRAESLKHIMENKELTQRVTELSIDNAKLKGTDYISFQPSAACEDALPLSLDSPRRGTPSSGLSQSINVGDAYLQEQLDKANRQLRVLNEERVELIVYQMMASKAIRLLHAEKTSLANHLEKLKA
Turning to B1, the “stoichiometry N” value in data set [7] is around 4.
